Measured values from article PMC7794244, “Development of a structural epitope mimic: an idiotypic approach to HCV vaccine design” (NPJ Vaccines, 2021).

Columns and labels:
[1] = molecular target: AP33 heavy chain mutant I95 (human-mouse chimeric AP33, residue changed to alanine) (mouse | human); assay: ELISA
[2] = molecular target: AP33 light chain mutant V93 (human-mouse chimeric AP33, residue changed to alanine) (mouse | human); assay: ELISA
[3] = molecular target: AP33 heavy chain mutant Y53 (human-mouse chimeric AP33, residue changed to alanine) (mouse | human); assay: ELISA
[4] = molecular target: AP33 light chain mutant N92 (human-mouse chimeric AP33, residue changed to alanine) (mouse | human); assay: ELISA
[5] = molecular target: AP33 light chain mutant Y28 (human-mouse chimeric AP33, residue changed to alanine) (mouse | human); assay: ELISA
[6] = molecular target: AP33 heavy chain mutant T97 (human-mouse chimeric AP33, residue changed to alanine) (mouse | human); assay: ELISA
[7] = molecular target: AP33 light chain mutant D94 (human-mouse chimeric AP33, residue changed to alanine) (mouse | human); assay: ELISA
[8] = molecular target: AP33 light chain mutant N30 (human-mouse chimeric AP33, residue changed to alanine) (mouse | human); assay: ELISA
[9] = molecular target: broadly neutralizing anti-E2 murine monoclonal antibody AP33 (IgG); assay: competition ELISA; settings: peptide 10 µg/ml (highest concentration); binding to E2661 read; parent: est. 5; read off a plot
[10] = molecular target: MAb ALP98; assay: ELISA; settings: parent: est. 100; read off a plot
[11] = molecular target: soluble HCV E2 that lacks the transmembrane domain (E2_(661)), monomeric (Hepatitis C virus genotype 1a strain …, UniProt P27958); assay: SPR; settings: both partners purified

## E2 (as tested on wild type and mutant AP33 in Table 1) (from UniProt P27958 384-746) (natural protein)
[1]
  Relative strength of binding (%) (% of binding to WT AP33): 10
[2]
  Relative strength of binding (%) (% of binding to WT AP33): 79
[3]
  Relative strength of binding (%) (% of binding to WT AP33): 100
[4]
  Relative strength of binding (%) (% of binding to WT AP33): 60
[5]
  Relative strength of binding (%) (% of binding to WT AP33): 112
[6]
  Relative strength of binding (%) (% of binding to WT AP33): 101
[7]
  Relative strength of binding (%) (% of binding to WT AP33): 74
[8]
  Relative strength of binding (%) (% of binding to WT AP33): 89

## E2 412-423 WT peptide W420R
[9]
  other: E2 Binding (%) remaining after peptide competition: 86%

## E2 WT I414A
[10]
  percent of parent: 96%

## E2 WT S424A
[10]
  percent of parent: 96%

B1: broadly neutralizing anti-E2 murine monoclonal antibody AP33 (IgG) (antibody, V domains shown)
VH: EVQLQESGPSLVKPSQTLSLTCSVTGDSITSGYWNWIRKFPGNKLEYMGYISYSGSTYYNLSLRSRISITRDTSKNQYYLQLNSVTTEDTATYYCALITTTTYAMDYWGQGTSVTVSS
VL: NIVLTQSPVSLAVSLGQRATISCRASESVDGYGNSFLHWFQQKPGQPPKLLIYLASNLNSGVPARFSGSGSRTDFTLTIDPVEADDAATYYCQQNNVDPWTFGGGTKLEIK
[11]
  Kd: 3.4 nM
  koff: 0.000542 s⁻¹
  kon: 160000 M⁻¹ s⁻¹
